Experimental findings from publication PMC7746762 are described below.

This test addresses FliC-NikRC flagellin variant (flagellin with its D3 domain replaced by the C-terminal Ni-binding domain of NikR) (S. typhimurium | E. coli) (UniProt P0A6Z6). In words: dynamic light scattering; purified FliC-NikRC in solution; conditions not shown (Fig. S1 in the SI).

“FliC-NikRC flagellin variant (flagellin with its D3 domain replaced by the C-terminal Ni-binding domain of NikR) (from UniProt P0A6Z6 50-133)” came in with a stoichiometry N of 4.

By stoichiometry N is commonly meant the number of molecules, sites or subunits per partner or assembly.
